“Also recorded” adds a separate entry of the source.

In data set [1] the target is recombinant C. elegans Cdc42 (UniProt Q05062).
Data set [2] has as its target recombinant C. elegans Rac (UniProt Q03206).
Data set [3] has as its target recombinant C. elegans Rho (UniProt Q22038).

Sequence of recombinant C. elegans Rho (Q22038 whole entry): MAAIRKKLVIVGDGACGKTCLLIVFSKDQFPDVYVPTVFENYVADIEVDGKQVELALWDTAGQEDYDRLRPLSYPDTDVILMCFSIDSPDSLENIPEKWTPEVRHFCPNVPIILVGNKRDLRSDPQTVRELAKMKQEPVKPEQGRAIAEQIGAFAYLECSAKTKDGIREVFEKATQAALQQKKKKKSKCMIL
Sequence of recombinant C. elegans Cdc42 (Q05062 whole entry): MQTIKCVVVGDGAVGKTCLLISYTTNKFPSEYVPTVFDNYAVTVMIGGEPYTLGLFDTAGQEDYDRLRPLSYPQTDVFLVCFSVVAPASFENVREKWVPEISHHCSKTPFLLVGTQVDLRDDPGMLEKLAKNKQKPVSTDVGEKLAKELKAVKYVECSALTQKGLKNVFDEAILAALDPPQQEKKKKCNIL

For the substance “GST-CYK-4-GAP (GST fused to the GAP domain of CYK-4, amino acids 407-681)”, the GTP hydrolysis entry in data set [1] was “The GAP domain of CYK-4 promotes GTP hydrolysis by all three tested GTPases; also recorded: the CYK-4 GAP domain is more active towards Rac and Cdc42 than towards Rho”; in data set [2], “The GAP domain of CYK-4 promotes GTP hydrolysis by all three tested GTPases; also recorded: the CYK-4 GAP domain is more active towards Rac and Cdc42 than towards Rho”; in data set [3] it was “The GAP domain of CYK-4 promotes GTP hydrolysis by all three tested GTPases; also recorded: the CYK-4 GAP domain is more active towards Rac and Cdc42 than towards Rho”.

Values taken from patent publication US20020076785.
